The values that follow come from patent publication US20240376180A1 (DEUTSCHES ZENTRUM FUR NEURODEGENERATIVE ERKRANKUNGEN E V …, published 2024).

Test [1] has as its target SARS-CoV-2 S protein-RBD-mFc (SARS-CoV-2, UniProt P0DTC2 319-537).
For the next test, the target named is beta-2 microglobulin (Homo sapiens (Human), UniProt P61769 21-119). The experiment in a line: routine laboratory ELISA. For orientation: An ELISA detects its analyte on a solid surface through an enzyme-linked reagent.
In test [2] the target is T1, Spike protein of authentic SARS-CoV-2 (Munich isolate 984) (SARS-CoV-2, UniProt P0DTC2 14-1273). The experiment in a line: cell-based or functional assay. The arrangement: IC90 Neutralizing Assay: unit not given beside the values.
For test [3], the target named is T1, Spike protein of authentic SARS-CoV-2 …. Kind of test: cell-based or functional assay.
The target of test [4] is Fc fusion protein of the RBD-SD1 region of SARS-CoV (SARS-CoV, UniProt P59594 306-577). Kind of test: ELISA on captured RBD-SD1-Fc.
Test [5] addresses T2, Fc fusion protein of the RBD-SD1 region of MERS-CoV (MERS-CoV, UniProt K9N5Q8 367-655).
T2 sequence: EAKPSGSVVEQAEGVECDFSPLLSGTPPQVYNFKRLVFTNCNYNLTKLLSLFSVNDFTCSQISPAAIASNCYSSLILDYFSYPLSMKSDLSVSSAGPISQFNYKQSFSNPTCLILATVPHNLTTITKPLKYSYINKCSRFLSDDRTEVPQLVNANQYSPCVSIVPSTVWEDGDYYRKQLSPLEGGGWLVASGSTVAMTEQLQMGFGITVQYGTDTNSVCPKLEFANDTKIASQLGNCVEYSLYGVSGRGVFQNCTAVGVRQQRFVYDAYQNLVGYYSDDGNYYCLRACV
The experiment in a line: ELISA on captured RBD-SD1-Fc.

Test [6] addresses T3, Fc fusion protein of the RBD-SD1 region of HCoV-HKU1 (HCoV-HKU1, UniProt Q5MQD0 310-677).
T3 construct: domain: RBD-SD1 region
T3 sequence: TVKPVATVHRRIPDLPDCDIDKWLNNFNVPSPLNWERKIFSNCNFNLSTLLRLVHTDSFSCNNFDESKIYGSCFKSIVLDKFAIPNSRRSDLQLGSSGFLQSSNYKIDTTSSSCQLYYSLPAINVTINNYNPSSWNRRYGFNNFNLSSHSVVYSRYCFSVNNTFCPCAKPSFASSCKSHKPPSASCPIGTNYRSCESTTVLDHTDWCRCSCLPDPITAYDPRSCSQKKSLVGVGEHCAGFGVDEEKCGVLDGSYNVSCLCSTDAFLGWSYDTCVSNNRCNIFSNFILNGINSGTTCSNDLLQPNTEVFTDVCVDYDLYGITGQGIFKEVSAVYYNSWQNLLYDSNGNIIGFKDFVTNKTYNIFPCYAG
Kind of test: ELISA on captured RBD-SD1-Fc.

For test [7], the target named is T4, Fc fusion protein of the RBD-SD1 region of HCoV-OC43 (HCoV-OC43, UniProt P36334 318-675).
T4 construct: domain: RBD-SD1 region
T4 sequence: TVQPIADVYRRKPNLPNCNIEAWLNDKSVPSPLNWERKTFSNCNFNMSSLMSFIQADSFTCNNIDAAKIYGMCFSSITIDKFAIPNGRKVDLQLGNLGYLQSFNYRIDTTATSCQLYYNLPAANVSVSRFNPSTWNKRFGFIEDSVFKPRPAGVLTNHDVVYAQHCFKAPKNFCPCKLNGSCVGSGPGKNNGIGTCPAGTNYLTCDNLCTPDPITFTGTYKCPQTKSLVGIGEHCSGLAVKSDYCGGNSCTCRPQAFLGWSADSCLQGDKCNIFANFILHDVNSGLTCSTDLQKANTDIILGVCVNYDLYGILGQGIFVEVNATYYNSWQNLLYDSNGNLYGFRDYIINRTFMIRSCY
The experiment in a line: ELISA on captured RBD-SD1-Fc.

Test [8] has as its target SARS-CoV-2 spike on S-pseudotyped MLV virions (SARS-CoV-2, UniProt P0DTC2 14-1255). The experiment in a line: cell-based or functional assay.
Test [9] concerns the target SARS-CoV spike on S-pseudotyped MLV virions (SARS-CoV). The experiment in a line: cell-based or functional assay.

beta-2 microglobulin, sequence (P61769 21-119 limits assumed): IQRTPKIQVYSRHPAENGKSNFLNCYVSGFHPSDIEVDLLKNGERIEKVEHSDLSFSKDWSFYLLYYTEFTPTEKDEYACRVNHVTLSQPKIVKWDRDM

B1: HK CV07-287 (antibody, V domains shown)
VH: QVQLVQSGPEVKKPGTSVKVSCKASGFTFTSSAMQWVRQARGQRLEWIGWIVVGSGNTNYAQKFQERVTITRDMSTSTAYMELSSLRSEDTAVYYCAAPYCSSTNCYDAFDIWGQGTMVTVSS
VL: not shown
Consider B1, for which the Kd in [1] was determined as 0.16 nM. Besides, the binding result is “no binding (tested: 50 µg/ml)” with beta-2 microglobulin; “no binding (tested: 1 µg/ml)” in test [4]; “no binding (tested: 1 µg/ml)” in test [5]; “no binding (tested: 1 µg/ml)” in [6]; “no binding (tested: 1 µg/ml)” in test [7]. The “IC90 Neutralizing Assay” value in test [2] was over 500. The “IC50 (PRNT, authentic SARS-CoV-2)” value in test [3] came out at 41.7 ng/mL.

B2: HK CV38-142 (antibody, V domains shown)
VH: EVQLVQSGAEVKKPGESLKISCQGSGYSFTSYWIGWVRQMPGKGLEWMGIIYPGESDTRYSSSFQGHVTISADKSISTAYLQWSSLKASDTAMYYCARIRGVYSSGWIGGDYWGQGTLVTVSS
VL: not shown
For B2, the entries for the “pseudovirus neutralization assay, potency (IC50)” value in [8] and in test [9] were 3.5 µg/mL and 1.4 µg/mL, respectively. Moreover, the binding result in the test with beta-2 microglobulin is given as “no binding (tested: 50 µg/ml)”. The “IC50 Neutralizing Assay” value in test [2] is about 50 ng/mL. In addition, the “IC50 (PRNT, authentic SARS-CoV-2)” value in test [3] was found to be 23.2 ng/mL.

In general, Kd refers to the free concentration of one partner at which half of the binding sites on the other are occupied at equilibrium, for simple one-to-one binding.
